Substitutions are numbered along the chain they refer to. In names and notes the source's numbering stands.
B1: PPM-2::GFP R185A (phosphatase trapping mutant of PPM-2) (enzyme)
chain: MGQTLSEPVTKKESASCANENYLVGSSCMQGWRVDMEDAHTHLLSLPDDPKCAFFAVYDGHGGSKVSQYSGINLHKKVVAQKEFSEGNMKEAIEKGFLELDQQMRVDEETKDDVSGTTAVVVLIKEGDVYCGNAGDSRAVSSVVGEARPLSFDHKPSHETEARRIIAAGGWVEFNRVNGNLALSAALGDFAFKNCDTKPAEEQIVTAFPDVITDKLTPDHEFIVLACDGIWDVMTNQEVVDFVREKLAEKRDPQSICEELLTRCLAPDCQMGGLGCDNMTVVLVGLLHGQSPDTLFTKCARPAVFTGVNNEDGDQNQIQQDISRVINNFDGEQRVNAANQEEEEDDNEPAPANFQV
B2: PPM-2::GFP (GFP fusion protein of wild-type PPM-2) (enzyme)
chain: B1 chain with A185R

Target: FLAG epitope tagged DLK-1 K162R (FLAG::DLK-1L K162R) (C. elegans)
Assay: co-IP; FLAG::DLK-1 K162R immunoprecipitated from 5 mg of transgenic whole worm lysate (0.1% NP-40 lysis buffer); wild-type or mutant PPM-2::GFP detected by anti-GFP immunoblot; bands quantified with Image J as ratio of PPM-2::GFP in coIP to FLAG::DLK-1 K162R immunoprecipitated

| Binder | ratio of PPM-2::GFP in coIP to FLAG::DLK-1 K162R immunoprecipitated |
| --- | --- |
| B1 | 1.5 |
| B2 | 0.4 |

Source: paper PMC4014440
